# Legend:
# TRIM25 CC-PRY/SPRY [1] = molecular target: T1, TRIM25 CC-PRY/SPRY (Homo sapiens, UniProt Q14258 189-630); assay: ITC; conditions: mean of replicates 15;29;20;9; ITC: 20 mM MES pH 6.5, 75 mM NaCl, 0.5 mM TCEP, 20 C; protein NMR: 20 mM sodium phosphate pH 6.5, 150 mM NaCl, 2 mM TCEP, 293 K
# TRIM25 CC [2] = molecular target: T2, TRIM25 CC (Homo sapiens, UniProt Q14258 189-379); assay: ITC; conditions: mean of replicates 59;61;63; ITC: 20 mM MES pH 6.5, 75 mM NaCl, 0.5 mM TCEP, 20 C; protein NMR: 20 mM sodium phosphate pH 6.5, 150 mM NaCl, 2 mM TCEP, 293 K
# TRIM25 PRY/SPRY [3] = molecular target: T3, TRIM25 PRY/SPRY (Homo sapiens, UniProt Q14258 439-630); assay: ITC; mean of replicates 0.3;0.7;0.3;0.2;0.6; DENV-SL in cell; ITC: 20 mM MES pH 6.5, 75 mM NaCl, 0.5 mM TCEP, 20 C; protein NMR: 20 mM sodium phosphate pH 6.5, 150 mM NaCl, 2 mM TCEP, 293 K; conditions: protein: recombinant; tags: His-Trx, cleaved (3C); chain copies: 3; hairpin with bulge
# TRIM25 CC-PRY/SPRY [4] = molecular target: T1, TRIM25 CC-PRY/SPRY; assay: ITC; KD1 of two sites, mean of replicates 0.015;0.016;0.011; ITC: 20 mM MES pH 6.5, 75 mM NaCl, 0.5 mM TCEP, 20 C; protein NMR: 20 mM sodium phosphate pH 6.5, 150 mM NaCl, 2 mM TCEP, 293 K; conditions: protein: recombinant; tags: His-Trx, cleaved (3C); chain copies: 2; hairpin with bulge
# Target sequence in this assay (Q14258 189-630): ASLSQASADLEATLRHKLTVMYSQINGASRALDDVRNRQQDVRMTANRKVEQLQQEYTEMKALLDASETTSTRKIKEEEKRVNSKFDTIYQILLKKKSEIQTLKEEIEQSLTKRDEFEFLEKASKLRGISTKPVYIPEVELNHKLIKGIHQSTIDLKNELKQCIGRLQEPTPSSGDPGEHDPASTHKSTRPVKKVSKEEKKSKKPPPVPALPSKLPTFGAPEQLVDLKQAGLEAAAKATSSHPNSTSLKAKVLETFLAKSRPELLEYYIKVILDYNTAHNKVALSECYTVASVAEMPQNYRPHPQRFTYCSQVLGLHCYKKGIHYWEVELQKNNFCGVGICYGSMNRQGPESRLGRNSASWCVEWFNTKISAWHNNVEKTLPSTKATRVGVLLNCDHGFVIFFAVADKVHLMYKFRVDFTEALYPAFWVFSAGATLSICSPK
# TRIM25 CC-PRY/SPRY [5] = molecular target: T1, TRIM25 CC-PRY/SPRY; assay: ITC; KD1 of two sites, mean of replicates 0.25;0.03;0.02; ITC: 20 mM MES pH 6.5, 75 mM NaCl, 0.5 mM TCEP, 20 C; protein NMR: 20 mM sodium phosphate pH 6.5, 150 mM NaCl, 2 mM TCEP, 293 K; conditions: protein: recombinant; tags: His-Trx, cleaved (3C); chain copies: 2; hairpin
# Target sequence in this assay (Q14258 189-630): as above
# TRIM25 CC-m2 = TRIM25 CC-m2 (Homo sapiens, UniProt Q14258 189-379, K283A;K285A); assay: ITC; enthalpy reduced about 10-fold; ITC: 20 mM MES pH 6.5, 75 mM NaCl, 0.5 mM TCEP, 20 C; protein NMR: 20 mM sodium phosphate pH 6.5, 150 mM NaCl, 2 mM TCEP, 293 K; conditions: protein: recombinant; tags: His-Trx, cleaved (3C); chain copies: 2; hairpin
# TRIM25 PRY/SPRY [6] = molecular target: T3, TRIM25 PRY/SPRY; assay: ITC; Supplementary Table 1 first row (probably pre-let-7) reads 0.76-0.97 uM; ITC: 20 mM MES pH 6.5, 75 mM NaCl, 0.5 mM TCEP, 20 C; protein NMR: 20 mM sodium phosphate pH 6.5, 150 mM NaCl, 2 mM TCEP, 293 K; conditions: protein: recombinant; tags: His-Trx, cleaved (3C); chain copies: 3; hairpin
# TRIM25 CC-PRY/SPRY [7] = molecular target: T1, TRIM25 CC-PRY/SPRY; assay: ITC; ITC: 20 mM MES pH 6.5, 75 mM NaCl, 0.5 mM TCEP, 20 C; protein NMR: 20 mM sodium phosphate pH 6.5, 150 mM NaCl, 2 mM TCEP, 293 K; conditions: protein: recombinant, tags: His-Trx, cleaved (3C), chain copies: 2
# Target sequence in this assay (Q14258 189-630): as above
# TRIM25 CC [8] = molecular target: T2, TRIM25 CC; assay: as above; conditions: protein: recombinant; tags: His-Trx, cleaved (3C); chain copies: 2; hairpin
# TRIM25 PRY/SPRY-m3 = TRIM25 PRY/SPRY-m3 (Homo sapiens, UniProt Q14258 439-630, H505E;K508E;K602E); assay: ITC; 400 uM RNA, 50 uM protein; ITC: 20 mM MES pH 6.5, 75 mM NaCl, 0.5 mM TCEP, 20 C; protein NMR: 20 mM sodium phosphate pH 6.5, 150 mM NaCl, 2 mM TCEP, 293 K; conditions: protein: recombinant; tags: His-Trx, cleaved (3C); chain copies: 3; hairpin
# TRIM25 CC-m4 = TRIM25 CC-m4 (Homo sapiens, UniProt Q14258 189-379, K320E;Y323E;H331E;K332E); assay: as above; conditions: protein: recombinant; tags: His-Trx, cleaved (3C); chain copies: 2; hairpin
# TRIM25 CC-PRY/SPRY-m9 [9] = molecular target: T4, TRIM25 CC-PRY/SPRY-m9 (Homo sapiens, UniProt Q14258 189-630, K283A;K285A;K320E;Y323E;H331E;K332E;H505E;K508E;K602E); assay: ITC; 200 uM RNA, 20 uM protein; ITC: 20 mM MES pH 6.5, 75 mM NaCl, 0.5 mM TCEP, 20 C; protein NMR: 20 mM sodium phosphate pH 6.5, 150 mM NaCl, 2 mM TCEP, 293 K; conditions: protein: recombinant; tags: His-Trx, cleaved (3C); chain copies: 2; hairpin
# TRIM25 PRY/SPRY [10] = molecular target: T3, TRIM25 PRY/SPRY; assay: NMR; CSPs in binding site 2 only; ITC: 20 mM MES pH 6.5, 75 mM NaCl, 0.5 mM TCEP, 20 C; protein NMR: 20 mM sodium phosphate pH 6.5, 150 mM NaCl, 2 mM TCEP, 293 K; conditions: protein: recombinant; tags: His-Trx, cleaved (3C); chain copies: 3; hairpin
# [11] = molecular target: the molecule itself; assay: SEC-MALS; 50 µl injected onto Superdex 200 5/150 GL in 20 mM MES, pH 6.5, 75 mM NaCl, 0.5 mM TCEP, 0.3 ml/min, room temperature
# TRIM25 PRY/SPRY [12] = molecular target: T3, TRIM25 PRY/SPRY; assay: NMR; CSPs in binding site 1 only; ITC: 20 mM MES pH 6.5, 75 mM NaCl, 0.5 mM TCEP, 20 C; protein NMR: 20 mM sodium phosphate pH 6.5, 150 mM NaCl, 2 mM TCEP, 293 K; conditions: protein: recombinant; tags: His-Trx, cleaved (3C); single-stranded
# TRIM25 PRY/SPRY [13] = molecular target: T3, TRIM25 PRY/SPRY; assay: ITC; ITC: 20 mM MES pH 6.5, 75 mM NaCl, 0.5 mM TCEP, 20 C; protein NMR: 20 mM sodium phosphate pH 6.5, 150 mM NaCl, 2 mM TCEP, 293 K; conditions: protein: recombinant; tags: His-Trx, cleaved (3C); chain copies: 3; stem-loop (called 28-mer duplex RNA)
# TRIM25 CC-PRY/SPRY [14] = molecular target: T1, TRIM25 CC-PRY/SPRY; assay: ITC; KD1 of two sites; ITC: 20 mM MES pH 6.5, 75 mM NaCl, 0.5 mM TCEP, 20 C; protein NMR: 20 mM sodium phosphate pH 6.5, 150 mM NaCl, 2 mM TCEP, 293 K; conditions: protein: recombinant; tags: His-Trx, cleaved (3C); chain copies: 2; hairpin
# Target sequence in this assay (Q14258 189-630): as above
# TRIM25 CC-PRY/SPRY-m9 [15] = molecular target: T4, TRIM25 CC-PRY/SPRY-m9; assay: ITC; 300 uM RNA, 30 uM protein; ITC: 20 mM MES pH 6.5, 75 mM NaCl, 0.5 mM TCEP, 20 C; protein NMR: 20 mM sodium phosphate pH 6.5, 150 mM NaCl, 2 mM TCEP, 293 K; conditions: protein: recombinant; tags: His-Trx, cleaved (3C); chain copies: 2; hairpin
# T3 sequence (Q14258 439-630): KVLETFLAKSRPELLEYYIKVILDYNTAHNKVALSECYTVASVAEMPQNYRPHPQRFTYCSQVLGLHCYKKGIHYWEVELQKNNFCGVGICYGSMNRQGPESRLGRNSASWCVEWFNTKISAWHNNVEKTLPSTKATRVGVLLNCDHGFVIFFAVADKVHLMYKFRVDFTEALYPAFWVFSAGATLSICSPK
# TRIM25 PRY/SPRY-m3, sequence (Q14258 439-630 H505E/K508E/K602E): as the sequence (Q14258 439-630) above, with H67E, K70E, K164E counted along it
molecule,measurement,setting,value
Lnczc3h7a loop,Kd,TRIM25 CC-PRY/SPRY [1],18000 nM
same,Kd,TRIM25 CC [2],61000 nM
GCAGGUCGGAUUAAGCCAUAGUACGGGAAAAACUAUGCUACCUG (structured_RNA) [DENV-SL],Kd,TRIM25 PRY/SPRY [3],420 nM
same,Kd,TRIM25 CC-PRY/SPRY [4],14 nM
UUUUAUCUGAGUUGGAGGUGAAG (structured_RNA) [Lnczc3h7a-SL],Kd,TRIM25 CC-PRY/SPRY [5],100 nM
GUAUAGUUUAAAAGGAGAUAACUAUAC (structured_RNA) [pre-let-7a-1@2 (pre-let-7)],Kd,TRIM25 CC-m2,4000 ± 2000 nM
same,Kd,TRIM25 PRY/SPRY [6],4000 ± 1000 nM
same,Kd,TRIM25 CC-PRY/SPRY [7]; hairpin,62 ± 44 nM
same,Kd,TRIM25 CC [8],3200 ± 700 nM
same,binding result,TRIM25 PRY/SPRY-m3,no binding
same,binding result,TRIM25 CC-m4,no binding
same,binding result,TRIM25 CC-PRY/SPRY-m9 [9],no binding
GUAUAGUUCAACUAUAC (structured_RNA) [pre-let-7 stem (stem-fusion)],binding result,TRIM25 PRY/SPRY [10],binds
"TRIM25 CC (aa 189–379) (domain or fragment, human, UniProt Q14258 189-379, looked up, also called CC domain; coiled-coil (CC) dimerisation domain) ASLSQASADLEATLRHKLTVMYSQINGASRALDDVRNRQQDVRMTANRKVEQLQQEYTEMKALLDASETTSTRKIKEEEKRVNSKFDTIYQILLKKKSEIQTLKEEIEQSLTKRDEFEFLEKASKLRGISTKPVYIPEVELNHKLIKGIHQSTIDLKNELKQCIGRLQEPTPSSGDPGEHDPASTHKSTRP",binding result,[11],binds
"TRIM25 CC-m4 (domain or fragment, human, UniProt Q14258 189-379, looked up) ASLSQASADLEATLRHKLTVMYSQINGASRALDDVRNRQQDVRMTANRKVEQLQQEYTEMKALLDASETTSTRKIKEEEKRVNSKFDTIYQILLKKKSEIQTLKEEIEQSLTKRDEFEFLEKASKLRGISTEPVEIPEVELNEELIKGIHQSTIDLKNELKQCIGRLQEPTPSSGDPGEHDPASTHKSTRP",binding result,[11],binds
"TRIM25 CC-m2 (domain or fragment, human, UniProt Q14258 189-379, looked up) ASLSQASADLEATLRHKLTVMYSQINGASRALDDVRNRQQDVRMTANRKVEQLQQEYTEMKALLDASETTSTRKIKEEEKRVNSKFDTIYQILLAKASEIQTLKEEIEQSLTKRDEFEFLEKASKLRGISTKPVYIPEVELNHKLIKGIHQSTIDLKNELKQCIGRLQEPTPSSGDPGEHDPASTHKSTRP",binding result,[11],binds
UAAAAGGAGAU (ssRNA) [pre-let-7 loop],binding result,TRIM25 PRY/SPRY [12],binds
UUAGUGGCAGACAAAGGCAUCGAGGCAGCCGCAGAAGUUGUCUGCGAAGU (structured_RNA) [RNA_50_motif1&2],Kd,TRIM25 CC-PRY/SPRY [7]; hairpin with bulge,3.5 nM
AUGGCUAGCUGGAGCCACCCGCAGUUCG (structured_RNA) [28-mer],Kd,TRIM25 PRY/SPRY [13],900 nM
GUAUAGUUUAAAGAAUGGAUAACUAUAC (structured_RNA) [pre-let-7_modified],Kd,TRIM25 CC-PRY/SPRY [14],180 nM
same,binding result,TRIM25 CC-PRY/SPRY-m9 [15],no binding
